Data on one protein can be found in PMC11277095 (International Journal of Molecular Sciences, 2024).

This data set concerns the molecule itself. The data set is described as follows: native gel or EMSA; 10 µg purified protein mixed with hypotonic buffer, hyperosmotic resealing solution (10% v/v Pigpa) or loading buffer; Tris/glycine buffer pH 8.3, 100 V; Coomassie staining.

B1: Human ornithine aminotransferase variant R217A (OAT-R217A) (enzyme, UniProt P04181 26-439, looked up)
chain: TSVATKKTVQGPPTSDDIFEREYKYGAHNYHPLPVALERGKGIYLWDVEGRKYFDFLSSYSAVNQGHCHPKIVNALKSQVDKLTLTSRAFYNNVLGEYEEYITKLFNYHKVLPMNTGVEAGETACKLARKWGYTVKGIQKYKAKIVFAAGNFWGRTLSAISSSTDPTSYDGFGPFMPGFDIIPYNDLPALEAALQDPNVAAFMVEPIQGEAGVVVPDPGYLMGVRELCTRHQVLFIADEIQTGLARTGRWLAVDYENVRPDIVLLGKALSGGLYPVSAVLCDDDIMLTIKPGEHGSTYGGNPLGCRVAIAALEVLEEENLAENADKLGIILRNELMKLPSDVVTAVRGKGLLNAIVIKETKDWDAWKVCLRLRDNGLLAKPTHGDIIRFAPPLVIKEDELRESIEIINKTILSF
modifications: PLP bound to Lys292 through a Schiff base linkage
notes: Human ornithine aminotransferase, mitochondrial; construct printed as 'pET43a Δ26-439 OAT-R217A', the mature form with Arg217 changed to alanine; also called dimeric hOAT; source: E. coli BL21, purified (DEAE HiPrep FF, Sephacryl S-100)
In the case of B1, the binding result was “binds”.
